Earlier results as cited in paper PMC6764118.

Target: Lys199 (UniProt position 223, AKQRLKCASLQ)
Assay: chemical modification

Human serum albumin (HSA) (Homo sapiens)
pKa: ∼8
